Earlier results in article PMC6691393.

Target: Survivin BIR (Homo sapiens) (UniProt O15392)
Sequence of UniProt O15392 (O15392 15-91): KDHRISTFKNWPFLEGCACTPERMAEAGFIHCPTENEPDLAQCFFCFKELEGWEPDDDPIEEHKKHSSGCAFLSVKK

SMAC/Diablo N-terminal peptide (from UniProt Q9NR28)
Kd: 121 µM
